Results on 15 sequences are retold here after the DeepSol protein solubility set.

This series can be described thus: soluble on expression in E. coli; label from the status in PepcDB or PDB records.
Turning to “MRNPENVLNSLSKHSGNLNYKFERLYRVLFNEEMFYVAYQNIYSKTGNMTAGADGKTIDGMSIDRVEQLIGSLKNETYQPNPSKRTYIPKKNGKKRPLGIPSFDDKLVQEVVRMILEAIYEGSFEHTSHGFRPKRSCHTALIDIQKTFTAVKWFIEGDIKGFFDNINHDVLINILRERIADERFLRLIRKFLNAGYVEDWVFHRTYSGTPQGGIISPILANIYLDKFDKYIKEYINRFNKGVTRKGDARYKLYEQRRYRLAKKLKNEKDVKVRKQMTAEIKRLREERNNYPARNEMDSSIKRLKYVRYADDFLIGITGNLEDCKTVKEDIKNYLNEALKLELSDEKTLITNAQKPAKFLGYDVFIRRCNDLRKDKYGKTVRAFGHKPVLYLNFETMRKKLFDYKAARIAVVNGKEVWKSIVRTYMLNLDDLEIVSQFNAEIRGFYNYYSIANNSYVINSFYHIMSYSMYKVFANKYKSSVKKILLKYKKNKVFQVAYENSKGKTLYQSFYHDGFKRKKVAGNIYCDTIPRTVSITGGRNSLMERLKLQVCELCGATDKLEMHHVRKLKDLKGKSDWEKKMIARRRKTLAVCSKCHAKIDPDRRIRLNLEHHHHHH”, the “soluble on expression in E. coli” value was “soluble”. In the case of “MPSDLIPLIELHQVSKTFGKPVAEHSLQGLLQRLHLTRPKPVTHAVDRVDLRIMRGEVVGLVGESGCGKSTLGRMVAGLLPVSSGVASVDGKPLDSLTTQERKALRLKVQMIFQDPSSSLNPRLRVDRIVGEGALLHGLTDRKGADDYVSAQLQRAGLNPQLRQRYPHQFSGGQRQRIGIARALAVQPELLVCDESVAALDVSIQAQILNLFMDLRDELGLTYLFISHDLGVVEHLCDRVVVMYLGRVVETASVDDLFARANHPYTQALLAQIPRFDIRSTRYDAIQGEIPSPLNPPTGCHFHPRCPHAMARCREEVPALREVSPNHQSACHLNDQR” it was “not soluble”. In the case of “MSLAAEKLRLVADPWPPFTDALLLNGGLATDIVNTALKRAGYTTLYEQVPWARALLGLSEGRHDVLINAWFSEDRKKIGQFSAEYLLNRIRFIKRKESPIDALTHEQLHHYLIAVVRGYAYSPAFDSDVLLKKVPVQNFSTAVRMLAAERVDLTLEDEYVARYNLALEANEVRARVEFLPGSLSENSLHILVSLKNPHHAKIVADFDREIAAMKADGTYEELLRLHGLQGPPEEGHHHHHH” it was “soluble”; in that of “VDNARIDLRSKYYVKPKADHPWLTRRTQSHQQVKPPKLPKKKPDPDKKD”, “soluble”; in that of “MGHHHHHHSHMGEGQIPPAHDSSIFISCDVLLKKISINTRTWLPCSISCSASLLENSPFYFTLFVCDYISHSFHLLINIFSEIMSYHGNGGYNAPYGGHGGYAPPPVHGAPGYMPPTVVHTDGGHHGHVDTHHHEESHHGEHHGGHHGVQHYESHHESHHHGGHHGHH”, “not soluble”. For “MNYHQYYPIDVVNGPGTRCTLFVSGCVHQCRGCYNQSTQRLDSGVLFTQEAEDKIINDLNDTRIKRRGLSLSGGDPLHPANVPHILKIVKRVREECPGKDIWVWTGYTLAELDDAQREVVQYIDVLIDGKFEQDKKDLNLEWRGSSNQIIHRFTDILEHHHHHH”, the “soluble on expression in E. coli” value is recorded as “not soluble”. Turning to “SGKMVSVINTVDTSHEDMIHDAQMDYYGTRLATCSSDRSVKIFDVRNGGQILIADLRGHEGPVWQVAWAHPMYGNILASCSYDRKVIIWREENGTWEKSHEHAGHDSSVNSVCWAPHDYGLILACGSSDGAISLLTYTGEGQWEVKKINNAHTIGCNAVSWAPAVVPGSLIDHPSGQKPNYIKRFASGGCDNLIKLWKEEEDGQWKEEQKLEAHSDWVRDVAWAPSIGLPTSTIASCSQDGRVFIWTCDDASSNTWSPKLLHKFNDVVWHVSWSITANILAVSGGDNKVTLWKESVDGQWVCISDVNKGQGSVSASVTEGQQNEQ”, the “soluble on expression in E. coli” value is recorded as “soluble”. In the case of “MARKKQFDYFGELNQLATNAYEAAKVLQEIVDNYSLENLVKKSEAIHQLEKENDEIVRKILNELYISFITPIDREDIVDITDHLDNIIDSINSLSYLLDHLVVEEMIAPALELTAYIVKATEGVKSATKEFAKFKNSKTLVSLIDEVNTIESQGDKLYSSAMKDLMTNEKDLLKVIKWKDVYDQLERTINDCESAVNIIVGIVIKNTLEHHHHHH” it was “soluble”; in that of “MEFSVKSGSPEKQRSACIVVGVFEPRRLSPIAEQLDKISDGYISALLRRGELEGKPGQTLLLHHVPNVLSERILLIGCGKERELDERQYKQVIQKTINTLNDTGSMEAVCFLTELHVKGRNNYWKVRQAVETAKETLYSFDQLKTNKSEPRRPLRKMVFNVPTRRELTSGERAIQHGLAIAAGIKAAKDLGNMPPNICNAAYLASQARQLADSYSKNVITRVIGEQQMKELGMHSYLAVGQGSQNESLMSVIEYKGNASEDARPIVLVGKGLTFDSGGISIKPSEGMDEMKYDMCGAAAVYGVMRMVAELQLPINVIGVLAGCENMPGGRAYRPGDVLTTMSGQTVEVLNTDAEGRLVLCDVLTYVERFEPEAVIDVATLTGACVIALGHHITGLMANHNPLAHELIAASEQSGDRAWRLPLGDEYQEQLESNFADMANIGGRPGGAITAGCFLSRFTRKYNWAHLDIAGTAWRSGKAKGATGRPVALLAQFLLNRAGFNGEE”, “soluble”. On to “MINIAVDNSIKITIETTVNAPIDMVWEAWTEPEHIKSWNHASDDWHTTEAKNDLRVGGRFVSKMEAKDGSFGFDFGGTYNKVRLYEFISYIMDDDRSVEITFKPEKDKTYIVESFEAEKSNPIDLQQKGWQAILDNFKKYVEENKLRGREKLEHHHHHH”, for which the “soluble on expression in E. coli” value was “soluble”. As for “MSLKILVIGPSWVGDMMMSQSLYRTLKARYPQAIIDVMAPAWCRPLLSRMPEVNEAIPMPLGHGALEIGERRRLGHSLREKRYDRAWVLPNSFKSALIPFFANIPHRTGWRGEMRYGLLNDARVLDKDAWPLMVERYVALAYDKGVMRAAKDLPQPLLWPQLQVSEGEKSLMCSDFSLSSERPLIGFCPGAEFGPAKRWPHYHYAELAKQLINEGYQVVLFGSAKDHEAGNEILAALNSEQQAWCRNLAGETQLEQAVILIAACKAIVTNDSGLMHVAAALDRPLVALYGPSSPDFTPPLSHKARVIRLITGYHKVRKGDTAQGYHQSLIDITPQRVLEELHSLLSEEGVEGGSHHHHHH”, the “soluble on expression in E. coli” value is “soluble”. For the sequence “GFPERELPRPGASRPAEKSRPPEAKGAQPADAWKAGRPRSEEDNELNLPNLAAAYSSILRSLGEDPQRQGLLKTPWRAATAMQFFTKGYQETISDVLNDAIFDEDHDEMVIVKDIDMFSMCEHHLVPFVGRVHIGYLPNKQVLGLSKLARIVEIYSRRLQVQERLTKQIAVAITEALQPAGVGVVIEATHMCMVMRGVQKMNSKTVTSTMLGVFREDPKTREEFLTLIRS”, the “soluble on expression in E. coli” value is on record as “soluble”. In the case of “MGSSHHHHHHSSGLVPRGSHMLKQKELIANVKNLTESDERITACMMYGSFTKGEGDQYSDIEFYIFLKHSITSNFDSSNWLFDVAPYLMLYKNEYGTEVVIFDNLIRGEFHFLSEKDMNIIPSFKDSGYIPDTKAMLIYDETGQLENYLSEISGARPNRLTEENANFLLCNFSNLWLMGINVLKRGEYARSLELLSQLQKNTLQLIRMAEKNADNWLNMSKNLEKEISLENYKKFAKTTARLDKVELFEAYKNSLLLVMDLQSHLIEQYNLKVTHDILERLLNYISE” it was “soluble”. For the sequence “MSLLSGSFLEENMKHLDTYIAFDLEFNTVNDVSHVIQGSAVKYDHHKEVDSFDTYVYTDVPLQSFINGLTGITSNKIAAAPKVEEVMAAFKNFVGELPLIGYNAQKSDLPILAENGLDLRDQYQIDLFDEAYDRRSADLNGIANLRLQTVATFLGIKGRGHNSLEDARMTAAIYESFLETDTNKAYLSQQEEVITDNPFVALGGFFDEGHHHHHH”, the “soluble on expression in E. coli” value is given as “not soluble”.

As to “MSLSLVIAAGTILGACGNSEKSSGSGEGKNKFSVAMVTDVGGVDDKSFNQSAWEGIQAFGKENGLKKGKNGYDYLQSKSDADYTTNLNKLARENFDLIYGVGYLMEDSISEIADQRKNTNFAIIDAVVDKDNVASITFKEQEGSFLVGVAAALSSKSGKIGFVGGMESELIKKFEVGFRAGVQAVNPKAVVEVKYAGGFDKADVGKATAESMYKSGVDVIYHSAGATGTGVFTEAKNLKKEDPKRDVWVIGVDKDQYAEGQVEGTDDNVTLTSMVKKVDTVVEDVTKKASDGKFPGGETLTYGLDQDGVGISPSKQNLSDDVIKAVDKWKKKIIDGLEIPATEKELKTFKAEEGGSHHHHHH”, the “soluble on expression in E. coli” value is “soluble”.
